In the assay the target is heat-denatured ovalbumin (UniProt P01012). The assay is described as follows: ELISA. (In general: An ELISA detects its analyte on a solid surface through an enzyme-linked reagent.)
Chain of UniProt P01012 (P01012 whole entry): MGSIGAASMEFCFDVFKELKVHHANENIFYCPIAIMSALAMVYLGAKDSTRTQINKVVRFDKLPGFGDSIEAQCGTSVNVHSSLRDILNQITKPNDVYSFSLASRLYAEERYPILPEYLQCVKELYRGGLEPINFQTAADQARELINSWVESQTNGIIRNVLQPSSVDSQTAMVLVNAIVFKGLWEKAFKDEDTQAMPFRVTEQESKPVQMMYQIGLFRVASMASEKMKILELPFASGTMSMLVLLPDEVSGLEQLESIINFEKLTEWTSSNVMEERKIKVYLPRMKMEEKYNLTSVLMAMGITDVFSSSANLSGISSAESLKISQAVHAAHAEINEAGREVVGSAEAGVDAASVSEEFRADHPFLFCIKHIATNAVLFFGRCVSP

The Kd is the constant that tells how readily two partners part at equilibrium. Read a low Kd as a tighter complex. “human IRE1α-LD-Fc fusion protein (from UniProt O75460 19-443)” came in with a Kd of 300 µM.

The values are drawn from article doi:10.1101/2021.09.10.459738.
